Laboratory results published in the supplement of paper PMC7125110.
± gives the standard error. Fewer inactive variants are shown than the library holds.

B1: glmS ribozyme (parent)
chain: AUAAAAGCGCCAGAACUACAGAAAUGUAGUUGACGAGGAGGAGGUUUAUCGAAUUUUCGGCGGAUGCCUCCAAA

Assays:
Details in all cases: with glucosamine-6-phosphate
glucosamine-6-phosphate [1] = variants of: B1; experiment: self-cleavage kobs at 40 uM GlcN6P; higher = faster cleavage; RNA array
Method in brief: (§1)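 kobs was derived by fitting per-tile medians to one- or two-exponential decays after normalising signals to baseline and to non-cleaving reference variants. Those signals came from barcoded ribozyme variants transcribed in situ by E. coli RNA polymerase on sequenced MiSeq chips, followed through a hybridised Cy3 probe at 37 °C and imaged over ~14 h. Glucosamine-6-phosphate (40 μM to 10 mM) in HEPES/KCl/Mg(OAc)2 buffer was flowed in. Weighted Michaelis–Menten fits across concentrations then gave kcat and KM.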

glucosamine-6-phosphate [2] = variants of: B1; experiment: self-cleavage kobs at 640 uM GlcN6P; higher = faster cleavage; RNA array
Method in brief: as §1

glucosamine-6-phosphate [3] = variants of: B1; experiment: self-cleavage kobs at 160 uM GlcN6P; higher = faster cleavage; RNA array
Method in brief: as §1

glucosamine-6-phosphate [4] = variants of: B1; experiment: self-cleavage kobs at 2500 uM GlcN6P; higher = faster cleavage; RNA array
Method in brief: as §1

glucosamine-6-phosphate [5] = variants of: B1; experiment: self-cleavage kobs at 10000 uM GlcN6P; higher = faster cleavage; RNA array
Method in brief: as §1

Row | Variant | self-cleavage kobs at 40 uM GlcN6P (glucosamine-6-phosphate [1]) [s⁻¹] | self-cleavage kobs at 640 uM GlcN6P (glucosamine-6-phosphate [2]) [s⁻¹] | self-cleavage kobs at 160 uM GlcN6P (glucosamine-6-phosphate [3]) [s⁻¹] | self-cleavage kobs at 2500 uM GlcN6P (glucosamine-6-phosphate [4]) [s⁻¹] | self-cleavage kobs at 10000 uM GlcN6P (glucosamine-6-phosphate [5]) [s⁻¹]
1 | A12C A36C U54G | < 1e-05 |  |  |  | 
2 | C11G U30C | < 1e-05 | < 1e-05 |  |  | 
3 | C11G U69G | 3.62e-05 ± 1.4e-05 | 0.000184 ± 3.4e-05 | 0.000125 ± 2.3e-05 | 8.88e-05 ± 1.6e-05 | 
4 | C11U C50G U65A C68A | 8.61e-05 ± 2.8e-05 |  |  |  | 
5 | C11G U56G A64U | < 1e-05 |  | < 1e-05 | < 1e-05 | 
6 | C11A A48C U55C C61A | < 1e-05 |  |  |  | 
7 | C11A A15C C50G | 0.000118 ± 3.3e-05 | 0.000113 ± 3.6e-05 | 0.000386 ± 0.00017 | 7.75e-05 ± 3.1e-05 | 4.96e-05 ± 1.5e-05
8 | C11U A42C U56A C68A | < 1e-05 |  |  |  | < 1e-05
9 | A12U G44C U65A | < 1e-05 |  |  |  | 
10 | A12U A14G A64U G66U | < 1e-05 |  |  |  | 
11 | C11U G13A A14C A52C G66A | < 1e-05 |  |  |  | < 1e-05
12 | C11G C16A G38C | < 1e-05 |  | < 1e-05 |  | < 1e-05
13 | C10U G62U | < 1e-05 | < 1e-05 | < 1e-05 | < 1e-05 | < 1e-05
14 | A12C G26U | 0.000614 ± 0.00014 | 0.00546 ± 0.0013 |  | 0.00321 ± 0.00099 | 0.0113 ± 0.0032
15 | C11G U54C | < 1e-05 |  |  |  | 
16 | A12U G41U A42G | 0.000102 ± 1.6e-05 |  |  |  | 0.00149 ± 0.0003
17 | C11A G51A | < 1e-05 | < 1e-05 |  |  | < 1e-05
18 | C11G G38U | < 1e-05 | < 1e-05 | < 1e-05 |  | < 1e-05
19 | C11G G32C G38A A42C G60C | < 1e-05 |  |  | < 1e-05 | 
20 | A12C G29U | 0.000186 ± 2.6e-05 | 0.00225 ± 0.00065 | 0.000725 ± 0.00022 | 0.00483 ± 0.0017 | 0.031 ± 0.014
21 | C11U A15C U46A | < 1e-05 | < 1e-05 | < 1e-05 |  | 
22 | C10U C11U U56G G62U | < 1e-05 |  |  |  | < 1e-05
23 | C11U G32C C58U C70G | 4.92e-05 ± 2.1e-05 |  |  |  | 
24 | A12G G35C G60A U65G C68G | 0.000127 ± 3.9e-05 |  |  | 0.000384 ± 0.00015 | 0.000121 ± 4.1e-05
25 | C11U A64C | < 1e-05 |  |  |  | < 1e-05

Row | Variant | self-cleavage kobs at 40 uM GlcN6P (glucosamine-6-phosphate [1]) [s⁻¹] | self-cleavage kobs at 640 uM GlcN6P (glucosamine-6-phosphate [2]) [s⁻¹] | self-cleavage kobs at 160 uM GlcN6P (glucosamine-6-phosphate [3]) [s⁻¹] | self-cleavage kobs at 2500 uM GlcN6P (glucosamine-6-phosphate [4]) [s⁻¹] | self-cleavage kobs at 10000 uM GlcN6P (glucosamine-6-phosphate [5]) [s⁻¹]
26 | C11U A64U | < 1e-05 | < 1e-05 | < 1e-05 |  | 
27 | A12U G41U U54A | 4.72e-05 ± 1.9e-05 |  |  |  | 0.000602 ± 0.00016
28 | A12U G29A G41A C50A C67A | < 1e-05 |  |  |  | 
29 | A12C G43U C71A | < 1e-05 |  |  |  | 
30 | A12C G40A | 0.000112 ± 2.1e-05 | 0.000633 ± 0.00023 | 0.000305 ± 8e-05 | 0.00149 ± 0.00055 | 0.00569 ± 0.0013
31 | C11A A42G U56A | < 1e-05 |  |  | 2.82e-05 ± 1.3e-05 | 7.2e-05 ± 1.5e-05
32 | C11U G41C U45A C71G | < 1e-05 |  | < 1e-05 | < 1e-05 | 
33 | C10U G40U U49C C70A | < 1e-05 |  |  |  | < 1e-05
34 | C11A G66C | < 1e-05 |  |  | < 1e-05 | 
35 | A12U G29A U56C | 0.000118 ± 2.9e-05 | 0.000685 ± 0.00022 |  | 0.0018 ± 0.00058 | 
36 | C11U A36G C58U C67G | 4.33e-05 ± 2.1e-05 |  |  |  | 
37 | C11G A39U G60A | < 1e-05 | < 1e-05 | < 1e-05 | < 1e-05 | 
38 | C11G A33C | < 1e-05 |  | < 1e-05 | < 1e-05 | 
39 | C11U G32C U55G A64C | < 1e-05 | < 1e-05 |  |  | < 1e-05
40 | C11A G59A G60A A64U | < 1e-05 |  |  |  | 
41 | A12G C34G G41C C50U U55A | < 1e-05 | < 1e-05 |  |  | 
42 | C11A G60U | < 1e-05 | < 1e-05 | < 1e-05 | < 1e-05 | < 1e-05
43 | A12C G62C | < 1e-05 |  |  | < 1e-05 | < 1e-05
44 | C11U A15G C50G | 5.89e-05 ± 2.4e-05 |  |  |  | 
45 | C10U G60U C67U | < 1e-05 | < 1e-05 | < 1e-05 |  | < 1e-05
46 | A12U A33U U47G U49G U55G C68U | < 1e-05 |  |  |  | 
47 | C11A G32C | < 1e-05 |  |  |  | 
48 | A12U G29U G35C U49A C70A C71G | < 1e-05 |  | < 1e-05 |  | 
49 | A12G G29U G44A G63A | < 1e-05 |  |  |  | < 1e-05
50 | C10U G40U A48U | < 1e-05 | < 1e-05 |  |  | < 1e-05
